Measured values from paper PMC8575500.

target: C12-AcpP (Escherichia coli acyl carrier protein AcpP, wt, carrying a C12 acyl chain) (Escherichia coli) (UniProt P0A6A8)
UniProt P0A6A8, sequence (P0A6A8 whole entry): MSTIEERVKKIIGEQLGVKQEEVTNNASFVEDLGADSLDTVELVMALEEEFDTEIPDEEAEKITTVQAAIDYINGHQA

Point of comparison: Escherichia coli FabF R206A (enzyme), completion of the reaction after 10 min, from the remaining C12-AcpP by HPLC 39%. Against it:
- Escherichia coli FabF K65A/K69A (enzyme) — higher, 65%
- Escherichia coli FabF K65A/R68A/K69A (enzyme) — lower, 15%
- Escherichia coli FabF K65A/R127A/K128A (enzyme) — higher, 44%
- Escherichia coli FabF R127A/K128A/R206A (enzyme) — lower, 13%
